Data published in patent US20260001928A1 (CORTERIA PHARMACEUTICALS, priority 2022, published 2026).
*1 amine or outer side, *2 acyl side, *3 side chain or, on linkers, in order; H or OH if unused. Where no end group is shown, it is not given here. Side-chain parts run from the residue outwards. [ ]: non-standard residue; d: D form. The star is where a group is joined. C16 diacid = O=C(O)CCCCCCCCCCCCCCC(=O)*; γGlu = O=C(O)[C@H](CCC(=O)[*:2])N[*:1]; NMeV = CN[C@H](C(=O)O)C(C)C; Decanoyl = CCCCCCCCCC(=O)*; Api = NC1(C(=O)O)CCNCC1; Hexanoyl = CCCCCC(=O)*; Aib = CC(C)(N)C(=O)O

B1: SEQ ID NO 159 (peptide)
peptide: [NMeV]LSLD[dV]PIKLK([γGlu-C16 diacid])KILLEQEKQKKQREQAETN[Aib]QILAQV-NH2
modifications: N-terminus assumed
SMILES: CC[C@H](C)[C@H](NC(=O)[C@H](CCC(N)=O)NC(=O)C(C)(C)NC(=O)[C@H](CC(N)=O)NC(=O)[C@@H](NC(=O)[C@H](CCC(=O)O)NC(=O)[C@H](C)NC(=O)[C@H](CCC(N)=O)NC(=O)[C@H](CCC(=O)O)NC(=O)[C@H](CCCNC(=N)N)NC(=O)[C@H](CCC(N)=O)NC(=O)[C@H](CCCCN)NC(=O)[C@H](CCCCN)NC(=O)[C@H](CCC(N)=O)NC(=O)[C@H](CCCCN)NC(=O)[C@H](CCC(=O)O)NC(=O)[C@H](CCC(N)=O)NC(=O)[C@H](CCC(=O)O)NC(=O)[C@H](CC(C)C)NC(=O)[C@H](CC(C)C)NC(=O)[C@@H](NC(=O)[C@H](CCCCN)NC(=O)[C@H](CCCCNC(=O)CC[C@H](NC(=O)CCCCCCCCCCCCCCC(=O)O)C(=O)O)NC(=O)[C@H](CC(C)C)NC(=O)[C@H](CCCCN)NC(=O)[C@@H](NC(=O)[C@@H]1CCCN1C(=O)[C@H](NC(=O)[C@H](CC(=O)O)NC(=O)[C@H](CC(C)C)NC(=O)[C@H](CO)NC(=O)[C@H](CC(C)C)NC(=O)[C@@H](NC)C(C)C)C(C)C)[C@@H](C)CC)[C@@H](C)CC)[C@@H](C)O)C(=O)N[C@@H](CC(C)C)C(=O)N[C@@H](C)C(=O)N[C@@H](CCC(N)=O)C(=O)N[C@H](C(N)=O)C(C)C
B2: SEQ ID NO 158 (peptide)
peptide: Decanoyl-VLSLD[dV]PIKLK([γGlu-C16 diacid])KILLEQEKQKKQREQAETN[Aib]QILAQV-NH2
SMILES: CCCCCCCCCC(=O)N[C@H](C(=O)N[C@@H](CC(C)C)C(=O)N[C@@H](CO)C(=O)N[C@@H](CC(C)C)C(=O)N[C@@H](CC(=O)O)C(=O)N[C@@H](C(=O)N1CCC[C@H]1C(=O)N[C@H](C(=O)N[C@@H](CCCCN)C(=O)N[C@@H](CC(C)C)C(=O)N[C@@H](CCCCNC(=O)CC[C@H](NC(=O)CCCCCCCCCCCCCCC(=O)O)C(=O)O)C(=O)N[C@@H](CCCCN)C(=O)N[C@H](C(=O)N[C@@H](CC(C)C)C(=O)N[C@@H](CC(C)C)C(=O)N[C@@H](CCC(=O)O)C(=O)N[C@@H](CCC(N)=O)C(=O)N[C@@H](CCC(=O)O)C(=O)N[C@@H](CCCCN)C(=O)N[C@@H](CCC(N)=O)C(=O)N[C@@H](CCCCN)C(=O)N[C@@H](CCCCN)C(=O)N[C@@H](CCC(N)=O)C(=O)N[C@@H](CCCNC(=N)N)C(=O)N[C@@H](CCC(=O)O)C(=O)N[C@@H](CCC(N)=O)C(=O)N[C@@H](C)C(=O)N[C@@H](CCC(=O)O)C(=O)N[C@H](C(=O)N[C@@H](CC(N)=O)C(=O)NC(C)(C)C(=O)N[C@@H](CCC(N)=O)C(=O)N[C@H](C(=O)N[C@@H](CC(C)C)C(=O)N[C@@H](C)C(=O)N[C@@H](CCC(N)=O)C(=O)N[C@H](C(N)=O)C(C)C)[C@@H](C)CC)[C@@H](C)O)[C@@H](C)CC)[C@@H](C)CC)C(C)C)C(C)C
B3: SEQ ID NO 157 (peptide)
peptide: Hexanoyl-VLSLD[dV]PIKLK([γGlu-C16 diacid])KILLEQEKQKKQREQAETN[Api]QILAQV-NH2
SMILES: CCCCCC(=O)N[C@H](C(=O)N[C@@H](CC(C)C)C(=O)N[C@@H](CO)C(=O)N[C@@H](CC(C)C)C(=O)N[C@@H](CC(=O)O)C(=O)N[C@@H](C(=O)N1CCC[C@H]1C(=O)N[C@H](C(=O)N[C@@H](CCCCN)C(=O)N[C@@H](CC(C)C)C(=O)N[C@@H](CCCCNC(=O)CC[C@H](NC(=O)CCCCCCCCCCCCCCC(=O)O)C(=O)O)C(=O)N[C@@H](CCCCN)C(=O)N[C@H](C(=O)N[C@@H](CC(C)C)C(=O)N[C@@H](CC(C)C)C(=O)N[C@@H](CCC(=O)O)C(=O)N[C@@H](CCC(N)=O)C(=O)N[C@@H](CCC(=O)O)C(=O)N[C@@H](CCCCN)C(=O)N[C@@H](CCC(N)=O)C(=O)N[C@@H](CCCCN)C(=O)N[C@@H](CCCCN)C(=O)N[C@@H](CCC(N)=O)C(=O)N[C@@H](CCCNC(=N)N)C(=O)N[C@@H](CCC(=O)O)C(=O)N[C@@H](CCC(N)=O)C(=O)N[C@@H](C)C(=O)N[C@@H](CCC(=O)O)C(=O)N[C@H](C(=O)N[C@@H](CC(N)=O)C(=O)NC1(C(=O)N[C@@H](CCC(N)=O)C(=O)N[C@H](C(=O)N[C@@H](CC(C)C)C(=O)N[C@@H](C)C(=O)N[C@@H](CCC(N)=O)C(=O)N[C@H](C(N)=O)C(C)C)[C@@H](C)CC)CCNCC1)[C@@H](C)O)[C@@H](C)CC)[C@@H](C)CC)C(C)C)C(C)C
B4: SEQ ID NO 160 (peptide)
peptide: [NMeV]LSLD[dV]PIKLK([γGlu-C16 diacid])KILLEQEKQKKQREQAETN[Api]QILAQV-NH2
modifications: N-terminus assumed
SMILES: CC[C@H](C)[C@H](NC(=O)[C@H](CCC(N)=O)NC(=O)C1(NC(=O)[C@H](CC(N)=O)NC(=O)[C@@H](NC(=O)[C@H](CCC(=O)O)NC(=O)[C@H](C)NC(=O)[C@H](CCC(N)=O)NC(=O)[C@H](CCC(=O)O)NC(=O)[C@H](CCCNC(=N)N)NC(=O)[C@H](CCC(N)=O)NC(=O)[C@H](CCCCN)NC(=O)[C@H](CCCCN)NC(=O)[C@H](CCC(N)=O)NC(=O)[C@H](CCCCN)NC(=O)[C@H](CCC(=O)O)NC(=O)[C@H](CCC(N)=O)NC(=O)[C@H](CCC(=O)O)NC(=O)[C@H](CC(C)C)NC(=O)[C@H](CC(C)C)NC(=O)[C@@H](NC(=O)[C@H](CCCCN)NC(=O)[C@H](CCCCNC(=O)CC[C@H](NC(=O)CCCCCCCCCCCCCCC(=O)O)C(=O)O)NC(=O)[C@H](CC(C)C)NC(=O)[C@H](CCCCN)NC(=O)[C@@H](NC(=O)[C@@H]2CCCN2C(=O)[C@H](NC(=O)[C@H](CC(=O)O)NC(=O)[C@H](CC(C)C)NC(=O)[C@H](CO)NC(=O)[C@H](CC(C)C)NC(=O)[C@@H](NC)C(C)C)C(C)C)[C@@H](C)CC)[C@@H](C)CC)[C@@H](C)O)CCNCC1)C(=O)N[C@@H](CC(C)C)C(=O)N[C@@H](C)C(=O)N[C@@H](CCC(N)=O)C(=O)N[C@H](C(N)=O)C(C)C

Experiments:
[1] = molecular target: human corticotropin-releasing factor 2a (CRF2a receptor) (human), Q13324; assay: cell-based or functional assay
human corticotropin-releasing factor 2a (CRF2a receptor) (human), Q13324, sequence (Q13324 20-411): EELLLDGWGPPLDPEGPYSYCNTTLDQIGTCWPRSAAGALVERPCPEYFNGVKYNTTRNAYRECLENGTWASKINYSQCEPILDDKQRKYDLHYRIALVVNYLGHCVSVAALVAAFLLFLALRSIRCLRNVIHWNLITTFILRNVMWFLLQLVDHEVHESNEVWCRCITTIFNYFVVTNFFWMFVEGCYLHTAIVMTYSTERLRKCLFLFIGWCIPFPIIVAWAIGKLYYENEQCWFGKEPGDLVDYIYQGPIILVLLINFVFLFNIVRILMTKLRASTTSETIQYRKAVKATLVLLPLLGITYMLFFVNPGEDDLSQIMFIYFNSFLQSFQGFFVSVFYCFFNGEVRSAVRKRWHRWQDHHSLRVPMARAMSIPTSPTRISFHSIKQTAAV

[2] = molecular target: T1, CRF1R receptor (UniProt P34998 24-415, limits assumed); assay: cell-based or functional assay
T1 sequence (looked up): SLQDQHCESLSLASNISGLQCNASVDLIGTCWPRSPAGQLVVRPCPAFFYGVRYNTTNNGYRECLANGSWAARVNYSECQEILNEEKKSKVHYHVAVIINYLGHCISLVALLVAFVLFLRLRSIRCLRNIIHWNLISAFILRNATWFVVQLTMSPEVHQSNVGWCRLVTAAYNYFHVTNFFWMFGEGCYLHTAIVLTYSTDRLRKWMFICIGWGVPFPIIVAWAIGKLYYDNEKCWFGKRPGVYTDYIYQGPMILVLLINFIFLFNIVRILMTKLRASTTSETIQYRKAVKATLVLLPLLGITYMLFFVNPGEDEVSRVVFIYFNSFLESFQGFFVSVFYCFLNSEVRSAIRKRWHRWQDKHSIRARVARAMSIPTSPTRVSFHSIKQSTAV

| Binder | EC50 [nM] (cAMP) [1] | Emax (% I) [2] [%] | EC50 [2] [nM] |
| --- | --- | --- | --- |
| B1 | 2.97 | 4 | – |
| B2 | 0.04 | 54 | 98.7 |
| B3 | 0.32 | 30 | – |
| B4 | 2.08 | 2 | – |
